Assay results taken from patent US20240190915.

Biological target: AGR2 (human, endogenous in PDAC cells) (UniProt O95994)

POLR2A (human, endogenous in PDAC cells)
phosphorylation levels of Ser2/5 residues (p-POLR2A^ser2/5) after AGR2 siRNA transfection, western blot: AGR2 downregulation (by siRNA transfection) reduces the phosphorylation levels of Ser2/5 residues (p-POLR2A^ser2/5), but not the POLR2A expression
